Experimental findings from patent US20050054833A1 (published 2005) are described below.

In test [1] the target is T1, human CD23 (low affinity receptor for IgE, FceRII/CD23) on 8866 cells (human, UniProt P06734 1-321).
T1 construct: whole, on cells; Target of the first step cell ELISA (glutaraldehyde-fixed 8866 cells); also called cellular CD23; FCEL
T1 sequence (looked up): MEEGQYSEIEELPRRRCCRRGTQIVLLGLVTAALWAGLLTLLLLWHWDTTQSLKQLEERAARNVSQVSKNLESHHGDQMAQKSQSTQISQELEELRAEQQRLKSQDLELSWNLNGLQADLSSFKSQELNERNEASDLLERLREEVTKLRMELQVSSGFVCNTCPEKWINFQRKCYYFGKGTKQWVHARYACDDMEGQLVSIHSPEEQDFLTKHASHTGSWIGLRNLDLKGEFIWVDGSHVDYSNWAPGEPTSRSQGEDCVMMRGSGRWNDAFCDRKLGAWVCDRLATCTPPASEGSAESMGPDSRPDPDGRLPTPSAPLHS
The test is described as follows: cell ELISA on fixed 8866 cells, hybridoma supernatant. How it is done: The first step of the ELISA comprised the transferral of fifty microliters of supernatant from each well to ninety-six well plates which had previously been coated with 10⁵ 8866 cells (CD23 positive cell line) per well. These plates were made by first coating the plates with 50 μl of aqueous solution containing twenty μg/ml Poly L-Lysine (Sigma Catalog #P1399, MW 150,000-300,000) for thirty minutes at room temperature. The remaining solution was removed (“flicked out”) and the plates left to dry. Once dry, fifty μl of 8866 cells in PBS were transferred and spun at 600 g for five minutes. The 8866 cells were covalently bound to the plate by adding fifty μl 0.5% glutaraldehyde (Sigma Catalog #G6257) in phosphate buffered saline (PBS) for 15 minutes. The glutaraldehyde was removed (flicked out) and the plates blocked with one hundred fifty μl 100 mM glycine (Sigma Catalog #G-2879) in 0.1% BSA-PBS. […] The presence of the HRPO was detected by a color development after the addition of a TMB reagent (Kirkegaard & Perry, Gaithersburg, Md., Catalog #50-76-02 and 50-65-02), 100 μl/well. […] Optical density (OD) was measured at […] on a spectrophotometer (Titertek Multiscan). The OD values greater than two times the background were scored as positive.
Background: An ELISA detects its analyte on a solid surface through an enzyme-linked reagent.

The target in test [2] is T1, human CD23 (low affinity receptor for …). The experiment in a line: cell ELISA on 8866 cells.

B1: primate anti-human CD23 monoclonal antibody 6G5 (antibody, V domains shown)
VH: QLQLQESGPGVVKPSETLSLTCAVSGGSVSSSNWWTWIRQPPGKGLEWIGRISGSGGATNYNPSLKSRVIISQDTSKNQFSLNLNSVTAADTAVYYCARDWAQIAGTTLGFWGQGVLVTVSS
VL: QSAPTQPPSVSGSPGQSVTISCTGTSDDVGGYNYVSWYQHHPGKAPKLMIYDVAKRASGVSDRFSGSKSGNTASLTISGLQAEDEADYYCCSYTTSSTLLFGRGTRLTVLG
notes: Monoclonal antibody from a cynomolgus macaque heterohybridoma; also called primate 6G5
For the molecule B1, the binding result in test [1] is on record as “binds”.

B2: primate anti-human CD23 monoclonal antibody 5E8 (antibody, V domains shown)
VH: EVQLVESGGGLAKPGGSLRLSCAASGFRFTFNNYYMDWVRQAPGQGLEWVSRISSSGDPTWYADSVKGRFTISRENANNTLFLQMNSLRAEDTAVYYCASLTTGSDSWGQGVLVTVSS
VL: DIQMTQSPSSLSASVGDRVTITCRASQDIRYYLNWYQQKPGKAPKLLIYVASSLQSGVPSRFSGSGSGTEFTLTVSSLQPEDFATYYCLQVYSTPRTFGQGTKVEIK
modifications: N-linked oligosaccharide at the asparagine of the heavy chain variable region glycosylation site (Kabat 75)
notes: Monoclonal antibody from a cynomolgus macaque heterohybridoma; also called primate 5E8
Take B2: the binding result in test [2] is reported as “binds”.
